We go through one molecule from paper PMC5207764.

The test deals with Vibrio cholerae major pilin TcpA with a His181Ala substitution, assembled in purified TCP^H181A pili (V. cholerae).

B1: Vibrio cholerae minor pilin TcpB (natural protein)
chain: MRKYQQGVGLLEAILASAVLGMALVAAGSYYKREAELMIKSSNAFDVIELSSQIQRYASLSKINNRTNPILKDNKAKEFKDADLKWLKLENCLTAGDVPTTGNNNDLQDQFIACDADYRKGDLSYFGSQFEFSTYVHPSNPEIQRQIKQVVSYFQYRGMERAFIGDAAGYVISEAKKKGFSAQDYRIVLIEPDRVGYFESNVISYEEFIENPSARENFLLKATKDRTLALAVSLAQTGEIAMQRDGSVAFLEDTELCWDTAAGSAKSCLSVRYDTVGNKTELDLKQIDVVSAKGLSFESDGKTKTPVVSTYETFQDGGRAKTINAIECPTGLNNRFAAVVSSFSTAGQNANFSSESAKDSQGTTQKDGSKGPHALLSGISLNWTLTNKVWDVTASIGIESGILPTSGIDSGSLLRNPKSLSFIAFQWCEN
As for B1, the molar ratio TcpA:TcpB in purified pili (TcpA per TcpB) was found to be 7000.
